Reference: paper PMC12730314, “The Role of Surfactants in Stabilizing Fluorescence Anisotropy for Protein–Aptamer Binding Affinity Measurements”

How the values were obtained:
thrombin (human plasma) [1] = biological target: T1, thrombin (human plasma) (Homo sapiens, UniProt P00734;P00734 328-363;364-622); assay: fluorescence anisotropy; 0.1% Tween 20, 50 nM aptamer; Hill fit; Thrombin: TGK (192 mM Tris, 5 mM KH2PO4, 25 mM glycine hydrochloride; pH not stated) +/- 0.1% Tween 20, thrombin stock in 1 mg/mL BSA, 25 C, 40 min; HSA: PBS +
thrombin (human plasma) [2] = biological target: T1, thrombin (human plasma); assay: fluorescence anisotropy; 0.1% Tween 20, 75 nM aptamer; Hill fit; Thrombin: TGK (192 mM Tris, 5 mM KH2PO4, 25 mM glycine hydrochloride; pH not stated) +/- 0.1% Tween 20, thrombin stock in 1 mg/mL BSA, 25 C, 40 min; HSA: PBS +
thrombin (human plasma) [3] = biological target: T1, thrombin (human plasma); assay: fluorescence anisotropy; no surfactant, 75 nM aptamer; Hill fit; Thrombin: TGK (192 mM Tris, 5 mM KH2PO4, 25 mM glycine hydrochloride; pH not stated) +/- 0.1% Tween 20, thrombin stock in 1 mg/mL BSA, 25 C, 40 min; HSA: PBS +
thrombin (human plasma) [4] = biological target: T1, thrombin (human plasma); assay: fluorescence anisotropy; 0.1% Tween 20, 25 nM aptamer; Hill fit; Thrombin: TGK (192 mM Tris, 5 mM KH2PO4, 25 mM glycine hydrochloride; pH not stated) +/- 0.1% Tween 20, thrombin stock in 1 mg/mL BSA, 25 C, 40 min; HSA: PBS +
[5] = biological target: human serum albumin (HSA) (Homo sapiens, UniProt P02768 25-609); assay: fluorescence anisotropy; PBS + 5 mM MgCl2, no Tween 20; saturable, poor 1:1 fit; 25 C, 40 min; HSA: PBS +; details: protein: commercial
human serum albumin (HSA), sequence (P02768 25-609): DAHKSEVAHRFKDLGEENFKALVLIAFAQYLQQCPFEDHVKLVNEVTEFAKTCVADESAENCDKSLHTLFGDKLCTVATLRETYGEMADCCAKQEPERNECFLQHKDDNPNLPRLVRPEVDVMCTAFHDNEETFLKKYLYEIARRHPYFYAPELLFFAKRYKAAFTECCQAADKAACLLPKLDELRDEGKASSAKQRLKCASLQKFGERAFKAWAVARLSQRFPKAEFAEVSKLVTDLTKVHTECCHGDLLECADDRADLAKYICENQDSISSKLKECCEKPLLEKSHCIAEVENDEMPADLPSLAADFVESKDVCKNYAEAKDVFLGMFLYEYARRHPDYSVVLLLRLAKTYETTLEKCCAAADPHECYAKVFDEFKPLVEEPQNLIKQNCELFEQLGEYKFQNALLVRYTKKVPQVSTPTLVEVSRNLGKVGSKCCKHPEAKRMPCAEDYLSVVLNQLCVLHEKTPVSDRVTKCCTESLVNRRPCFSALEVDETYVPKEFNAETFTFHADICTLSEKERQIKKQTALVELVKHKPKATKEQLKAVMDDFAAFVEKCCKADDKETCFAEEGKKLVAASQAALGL

## AGTCCGTGGTAGGGCAGGTTGGGGTGACT (structured_DNA) [TR-labeled thrombin-binding 29mer]
Thrombin (human plasma) [1]
  Kd: 53 nM
Thrombin (human plasma) [2]
  Kd: 30 nM
Thrombin (human plasma) [3]
  Kd: 54 nM
Thrombin (human plasma) [4]
  Kd: 35 nM

## TCCACGATGTAGGATCCACATGAGCGCTCCTGTTACCCTG (ssDNA) [TR-labeled s10yh2]
[5]
  binding result: binds
